The nature of this data set: soluble on expression in E. coli; label from the status in PepcDB or PDB records.
Regarding “AKTEQQIADIVNRTITPLMQEQAIPGMAVAIIYEGKPYYFTWGKADIANNHPVTQQTLFELGSVSKTFNGVLGGDAIARGEIKLSDPVTKYWPELTGKQWRGISLLHLATYTAGGLPLQIPDDITDKAALLRFYQNWQPQWTPGAKRLYANSSIGLFGALAVKPSGMSYEEAMTRRVLQPLKLAHTWITVPQSEQKNYAWGYREGKPVHVSPGQLDAEAYGVKSSVIDMARWVQANMDASHVQEKTLQQGIELAQSRYWRIGDMYQGLGWEMLNWPLKADSIINGSDSKVALAALPAVEVNPPVPAVKASWVHKTGSTGGFGSYVAFVPEKNLGIVMLANKSYPNPVRVEAAWRILEKLQ”, the “soluble on expression in E. coli” value is recorded as “soluble”.

As to “ALESARAGYWEWNVENGTILIDRQWAVISGYNSADFDMLTMEQWRELCHPADLGVVTKSIEELLDGSMERLELELRVRHKNGEWIRVLDCGKVTGRSKNGKPSCLTGSRQALASLHDK”, the “soluble on expression in E. coli” value is given as “soluble”. Take “ALSPPRRKSFKKWTPPRSPFNLVQEILFHDPWKLLIATIFLNRTSGKMAIPVLWEFLEKYPSAEVARAADWRDVSELLKPLGLYDLRAKTIIKFSDEYLTKQWRYPIELHGIGKYGNDSYRIFCVNEWKQVHPEDHKLNKYHDWLWENHEKLSLS”: the “soluble on expression in E. coli” value is “soluble”.

With “AMAISITCPPPMSVEHADIWVKSYSLYSRERYICNSGFKRKAGTSSLTECVLNKATNVAHWTTPSLKCIRDPALVHQRPAPPSTVTTAGVTPQPESLSPSGKEPAAS”, the “soluble on expression in E. coli” value is “soluble”.

Consider “AMDSIAKRPRTRLSPLKRKQQLMEIALEVFARRGIGRGGHADIAEIAQVSVATVFNYFPTREDLVDEVLNHVVRQFSNFLSDNIDLDLHAKENIANITNAMIELVVQDNHWLKVWFEWSASTRDEVWPLFVTTNRTNQLLVQNMFIKAIERGEVCDQHNPEDLANLFHGICYSLFVQANRTNNTAELSKLVSSYLDMLCIYKREHE”, for which the “soluble on expression in E. coli” value is “soluble”.

Consider “ANGFHYTVGFNLSDYQSEVTKFDNESKELGNWYVGQKQGEIWGYETYGLFQSEQEIAGAANQDKVSGGIKLMPGDIRFVDRNNDGVIDWGDNTVDNPGDKKIIGNSTPRYHYGINLGADWKGFDLGIFFQGVGKRDLYLPGTSFRSHYGSEWQVPSAYNNDYWTEENTGAYFPRARFNGGSAINQAQTRYMVDASYCRLKSLSIGYTLPKVLTQKASIEKIRIYFTGENLFTISDTPDGLDPELDNPYTYPMQRSLSVGLSLTF”, for which the “soluble on expression in E. coli” value is listed as “not soluble”. Take “ANKMALLIDGPNMLRKEFNVDLDKVRDALEQFGDIVVGRVYLNQYASDKLIEAIANQGFEPRISAGDVDVEMAVEGTELIFNKNIDTIVYMTRDADFLPAIRKAKERGKQIIVVGAEPGFSTAIQNIADHVIRVEEDFE”: the “soluble on expression in E. coli” value is “not soluble”. In the case of “ANKNKGFEGVAWDPRRQQLLLGEERPPALYTWKSDGSNVLKGDKQSLLSRALDMRNLSSLSIDPRTGHMLALSADSHMLLEVDEQGNQVSFMTLLGGMNGLKD” it was “not soluble”. In the case of “APEERDLTQEQTEKLLQFQDLTGIESMDQCRHTLEQHNWNIEAAVQDRLNEQEGVPSVFNPPPSRPLQVNTADHRIYSYVVSRPQPRGLLGWGYYLIMLPFRFTYYTILDIFRFALRFIRPDPRSRVTDPVGDIVSFMHSFEEKYGRAHPVFYQGTYSQALNDAKRELRFLLVYLHGDDHQDSDEFCRNTLCAPEVISLINTRMLFWACSTNKPEGYRVSQALRENTYPFLAMIMLKDRRMTVVGRLEGLIQPDDLINQLTFIMDANQTYLVSERLEREERNQTQVLRQQQDEAYLASLRADQEKERKKREERERKRRKEEEVQQQKLAEERRRQNLQEEKERKLECLPPEPSPDDPESVKIIFKLPNDSRVERRFHFSQSLTVIHDFLFSLKESPEKFQIEANFPRRVLPCIPSEEWPNPPTLQEAGLSHTEVLFVQDLTDE” it was “soluble”. As to “APPGPPASGPCADLQSAINAVTGGPIAFGNDGASLIPADYEILNRVADKLKACPDARVTINGYTDNTGSEGINIPLSAQRAKIVADYLVARGVAGDHIATVGLGSVNPIASNATPEGRAKNRRVEIVVN”, the “soluble on expression in E. coli” value was “soluble”. In the case of “AQSVPYGISQIKAPALHSQGYTGSNVKVAVIDSGIDSSHPDLNVRGGASFVPSETNPYQDGSSHGTHVAGTIAALNNSIGVLGVSPSASLYAVKVLDSTGSGQYSWIINGIEWAISNNMDVINMSLGGPTGSTALKTVVDKAVSSGIVVAAAAGNEGSSGSTSTVGYPAKYPSTIAVGAVNSSNQRASFSSAGSELDVMAPGVSIQSTLPGGTYGAYNGTCMATPHVAGAAALILSKHPTWTNAQVRDRLESTATYLGNSFYYGKGLINVQAAAQ” it was “soluble”; in that of “ARYLDVTSRRDPEHSHRTYYVTGQVFFASADRFTASFDLREKVETLAIDLREAHFWDITAVAALDKVVLKLRRAGISVDVVGMNRATATLVDRFGVHDKPDGIDSLMGH”, “not soluble”; in that of “ASIPEGTDKNAPLTSIPGYIPNMLSPPKGDAFAARNQFALAIDFEHQPPFFDVTETHKAATWLLHPQAPKVEMPADVKEKIAITRKALAIKMPSQPVKQPKSNGNKKTKTKSAR”, “soluble”. The value for “ASMGKSAVIFVERATPATLTELKDALSNSILSVRDPWSIDFRTYRCSIKNLPADVSKLMYSITFHHHGRQTVLIKDNSAMVTTAAAADIPPALVFNGSSTGVPESIDTILSSKLSNIWMQRQLIKGDAGETLILDGLTVRLVNLFSSTGFKGLLIELQADEAGEFETKIAGIEGHLAEIRAKEYKTSSDSLGPDTSNEICDLAYQYVRALEL” was “soluble”; that for “ASPIGEGTFDDGPEGWVAYGTDGPLDTSTGALCVAVPAGSAQYGVGVVLNGVAIEEGTTYTLRYTATASTDVTVRALVGQNGAPYGTVLDTSPALTSEPRQVTETFTASATYPATPAADDPEGQIAFQLGGFSADAWTLCLDDVALDSEVEL” was “soluble”; that for “ATDATSLATDKDKLSYSIGADLGKNFKNQGIDVNPEAMAKGMQDAMSGAQLALTEQQMKDVLNKFQKDLMAKRTAEFNKKADENKVKGEAFLTENKNKPGVVVLPSGLQYKVINSGNGVKPGKSDTVTVEYTGRLIDGTVFDSTEKTGKPATFQVSQVIPGWTEALQLMPAGSTWEIYVPSGLAYGPRSVGGPIGPNETLIFKIHLISVKKSS” was “soluble”.

Consider “ATLHSFVLVDNGGTGNVTVVPVSNANGVAEWLSNNSRSQAYRVTASYRASGADKRKYTIKLEVPKIVTQVVNGVELPVSAWKAYASIDLTIPIFAATDDVTVISKSLTGLFKVGNPIAEAISSQSGFYA”, for which the “soluble on expression in E. coli” value is on record as “soluble”. The value for “ATPAAQASDDRYEVTQQRNPDAACLDCHKPDTEGMHGKHASVINPNNKLPVTCTNCHGQPSPQHREGVKDVMRFNEPMYKVGEQNSVCMSCHLPEQLQKAFWPHDVHVTKVACASCHSLHPQQDTMQTLSDKGRIKICVDCHSDQRTNPNFNPASVPLLKEQP” was “soluble”; that for “AVKGLGKPDQVYDGSKIRVGIIHARWNRVIIDALVKGAIERMASLGVEENNIIIETVPGSYELPWGTKRFVDRQAKLGKPLDVVIPIGVLIKGSTMHFEYISDSTTHALMNLQEKVDMPVIFGLLTCMTEEQALARAGIDEAHSMHNHGEDWGAAAVEMAVKFGKNAF” was “soluble”. Take “AYKVTLKTPDGDITFDVEPGERLIDIGSEKADLPLSCQAGACSTCLGKIVSGTVDQSEGSFLDDEQIEQGYVLTCIAIPESDVVIETHKEDEL”: the “soluble on expression in E. coli” value was “soluble”. The value for “CLAEGTRIFDPVTGTTHRIEDVVDGRKPIHVVAAAKDGTLHARPVVSWFDQGTRDVIGLRIAGGAILWATPDHKVLTEYGWRAAGELRKGDRVAQPRRFDGFGDSAPIPARVQALADALDDKFLHDMLAEELRYSVIREVLPTRRARTFDLEVEELHTLVAEGVVVHN” was “soluble”.

On to “CNFDCLYCELEGKKATDSMGEVAKVEEILEELREALPRYKPDVITVTANGEPTLYPALLPLIRGINALPHSAKTLILSNGSRFGEPEVQEALLEFDMVKFSLDAVSARAFKRVDRAHDSLSISQIIQGIKGFRSRYRGDLIAEVLFVKGVNDSPEEARAIARVLKEIAPSRVDLSTIDRPPAYKVEGVSPQKLEE”, for which the “soluble on expression in E. coli” value is “not soluble”.

For the sequence “CRELLPVEARQKTLLIDADLTLDEITPKFLNVLEQFAPFGFSNREPLFTATGCRLVGKPKLLRERHVKFTVRGEQSSSFEVIAFDRPDIFNDLEAHGSASALQLVCIPERNQWNGREYVQLRVMDMAIG”, the “soluble on expression in E. coli” value was “not soluble”. The value for “CSSPQHASTVPGTTPSIWTGSPAPSGLSGHDEESPGAQSLTSTLTAPDGTKVATAKFEFANGYATVTIATTGVGKLTPGFHGLHIHQVGKCEPNSVAPTGGAPGNFLSAGGHYHVPGHTGTPASGDLASLQVRGDGSAMLVTTTDAFTMDDLLSGAKTAIIIHAGADNFANIPPERYVQVNGTPGPDETTLTTGDAGKRVACGVIGSG” was “soluble”; that for “CYVDTNNDGAYEGDELHMGSLTVKAYLLGKEEAAREIRRFSFCFSPEPEAEAAAGPGPSERLLSRVAVLFPALRPGGFQAHYRAERGDLVAFSSDEELTMAMSYVKDDIFRIYIKEK” was “soluble”; that for “DAHSLWYNFTIIHLPRHGQQWCEVQSQVDQKNFLSYDCGSDKVLSMGHLEEQLYATDAWGKQLEMLREVGQRLRLELADTELEDFTPSGPLTLQVRMSCECEADGYIRGSWQFSFDGRKFLLFDSNNRKWTVVHAGARRMKEKWEKDSGLTTFFKMVSMRDCKSWLRDFLMHRKKRLE” was “soluble”.

Consider “DCLLPIVAAPMAGGPTTVALAQAVSGVGGFPFLAGGYKSVEALATEIAVLRASGGNFGVNLFVPSPDMVDAEAFRIYAAKLQSEALPYGLRLDPLPVMGDDDGWPDKLALLLNDPVPVVSFTFGLPAVRDIAALRCAGSRVLASVTLPAEAQAAMEAGVDGLVVQGPDAGGHSATYDPGRPFTPLKTVSLVRRVCAVSSLPVIAAGGVDGPVMVRALLQAGAAAVAIGTLLLRTKESGATQVHKDALANPAYTETVITHAFTGRPARTLRNGFVNRYHASAPLGYPAIHHLTRPLRQAAASAGDADVLHLWAGTGYRQAMDGSAVDVIQ”, for which the “soluble on expression in E. coli” value was “not soluble”. In the case of “DDLIEGYLSSEEYYHEESARYIQKFSKYVSENELSTSDRKAFGEWVKKENYINLTIFKDQELQYDSIYSESDYGKEKLTQYAQNHSHPVKFSDGEGRVIIDGFYSSRYYD” it was “not soluble”. The value for “DEYLENLTDTPKHSKAYPIIKFEFTGRSVDAPLLSQASKKFGVELSILTSQIDYAGGVKFGYTIAEVEGDEDAITQTKVYLMENNVRVEVLGYVQ” was “not soluble”; that for “DFFRSAIDQAPSFMAVLDGRDHIFRIVNQAYHQLVGRRDLLNRTVREALPELDGQGFFELLDEVFLTGLAFTRLAAPVLLRRGPEIERSFVDFIMCPLRGPDGQVRGVFVEGHDVT” was “not soluble”. Turning to “DGFKIVQFSDAHLSDYFTLEDLKTVILTINESKPDLIVFTGDIIDNPDTYQHHQAVIPLLRKLNAPFGKLCIYGNHDHGGYGTAVYKSLMTAGGFTVYRNGYQTLSLADGSKIEIASLDDFNAGKPRFMQGTLSRLSDRLFSILLVHEPDAALKTTDYPVNLQLSGHTHGGQIQLPFYGPIITPPYGKVYTEGMYQTGSTHIYVNRG”, the “soluble on expression in E. coli” value was “not soluble”.

Source of the values: the DeepSol protein solubility set.
